The record followed here is the DeepSol protein solubility set.

This data set can be described thus: soluble on expression in E. coli; label from the status in PepcDB or PDB records.
For the sequence “MLTVHHLNQSRSQRILWALEELALPYQIVRYQREKTMLAPPALKKVHPLGKSPVIEDHGMVIAESGAILEYLQDTYDSIGRFKPADAQGKQHYRFWLHYAEGSLMPLLLMRLLFTSLGKPPVPLGLRTLGGVIGKGAQKAYLNPQLETHARFIDGHLANHPWFAGEQLSMADIQMSFPLFALLARGGIAHLDHINAWKARVEMRPAWQRAIQQGGPFTIPGG”, the “soluble on expression in E. coli” value was “not soluble”.
For the sequence “MAHHHHHHMSGEVDFWSATIAAYQPLQLTSPELTPKLLKRPPFRFIHDIVCSIDARFAAYDHIIPAELRDSAQVDTKEKKIEYLTTLIQYINRIMKVEIDVNPKKIVSGNEPEKTNIFLQYLAAGVGYAQQDKAAQATPAPQQKSAASLASPASPAAASFSTNPAQDNLSLSLASGLCRKKSSSRDPAERRRSHVSVFDEAAKFNRKLSGYSLNLNLDEQRDVRSEGQSIVRMWNELANPQTETKPSHMPQEALETAIKRQIETVKMVQELLSENDRVIDKLEALVI”, the “soluble on expression in E. coli” value is “not soluble”.
On to “TRGLNFSVEFTGGTVMEVQYQQGADVNKMRERLDTLKIGDVQVQALGTNKHIMIRLPNKEGVTSAQLSNQVMDLLKKDSPDVTLRQVEFIGPQVGEE”, for which the “soluble on expression in E. coli” value was “not soluble”.
The entry for “MDFECQFVCELKELAPVPALLIRTQTTMSELGSLFEAGYHDILQLLAGQGKSPSGPPFARYFGMSAGTFEVEFGFPVEGGVEGSGRVVTGLTPSGKAASSLYIGPYGEIEAVYDALMKWVDDNGFDLSGEAYEIYLDNPAETAPDQLRTRVSLMLHESLEHHHHHH” is “soluble”; for “MTDLHPVKEETFNITAMNNIDPKGFHRDVDTYSETEFGLYMARGANHPRFGYLESWLLPEINLRANIFHFRDGIDEHQDFYFDIAEISHDGHTWHTRDLYVDLISVVGEPVRVDDTDELAAATSAGLITAEDAEKAIDATLLAVDGITRHNDDPMAWLAAMGYPLTWAKNITLKEAE” it is “soluble”.
Consider “MAHHHHHHMDQLVYYVMVQHNSIQPIIVRQPPTVVIHTQPNPPITLDLPPQNIILKNDEPQPIIVRQQNPNIIVQKSGNEFSENPNYALSLNQQMKEITSMTSPSAAIPHGGIAQVGIPHVTNEPLLGVTTPEMNELTDPAYIYSNQYITTQNKSQPMNNMYFTSVPLNNDGSYSPYNMTLYANKREDYTKSTPSKY”, for which the “soluble on expression in E. coli” value was “not soluble”.
As for “GPGSMEATVAPSTGLRQLRRVRRARTQYERLQRPDDIQPGYPIPSIEGWVLFFSNLPETTTQEDIANYLVSFKEGDPDYFGAITDIKIPLNADCFCAGYALVELEDRAGYERAIAELNGTVFPSADKPLVVAPTFLGEEEEQEPQAEEVAPGEKRARD”, the “soluble on expression in E. coli” value is “soluble”.
As for “MGSDKIHHHHHHMISTANITMQFGSKPLFENVSVKFNNGNRYGLIGANGCGKSTFMKILGGDLEPSAGQVMLEPNTRLGKLRQDQFAYEEFTVIDTVIMGHGQLWKVKAERDRIYSLPEMTEEDGMAVAELETEFAEMDGYTAESRAGELLLGLGIPLEQHFGPMSEVAPGWKLRVLLAQALFSDPDVLLLDEPTNHLDINTIRWLETILTARNSTMIIISHDRHFLNSVCTHMADLDYGELRLFPGNYDEYMTAATQSREQLLSDNAKKKAQIAELQTFVSRFSANASKAKQATSRAKQIDKIQLAEVKPSSRVSPFIRFEQAKKLHRQAVVVEKMAKAFDDKVLFKNFDITVEAGERVAIIGPNGIGKTTLLRTLVGEMTPDAGSVKWTDSAEVGYYAQDHAHDFEDDMTLFDWMGQWTSGEQVIRGTLGRMLFSNDEILKSVKVISGGEQGRMLFGKLILQKPNVLVMDEPTNHLDMESIEALNLALENYPGTLLFVSHDREFVSSLATRIIELSADGVVDFSGTYDDYLRSQGVLV”, the entry is “not soluble”.
Take “MVRPYGIKVNKRKEREERYDKEEDEVEEQPKFEQKQKARESSKKAKKESTSRAEEDNDEEEVTVEATAAAEDIVGGIPIVLNAPNKEKSGIVFVLEKASLEVAKVGKTYQLLNSDDHANFLKKNNRNPADYRPDITHQALLMILDSPVNKAGRLKAVYVRTEKGVLFEVKPHVRIPRTFKRFAGIMLQLLQKLSITAVNSREKLLRCVKNPIEEHHLPVNSHRIGFSHSSEKLVNMQKHLATVCDDDRDTVFVVGAMAHGKIDCNYIDEFVSVSEYPLSAAYCISRICEALATNWNII”: the “soluble on expression in E. coli” value was “soluble”.
